{"source": "patent US20050059089A1", "about": "(priority 2003, published 2005)", "key": {"[1]": {"target": "T1, GPCR142 (Homo sapiens, UniProt Q8TDU9, L329S)", "T1 sequence (Q8TDU9 whole entry L329S)": "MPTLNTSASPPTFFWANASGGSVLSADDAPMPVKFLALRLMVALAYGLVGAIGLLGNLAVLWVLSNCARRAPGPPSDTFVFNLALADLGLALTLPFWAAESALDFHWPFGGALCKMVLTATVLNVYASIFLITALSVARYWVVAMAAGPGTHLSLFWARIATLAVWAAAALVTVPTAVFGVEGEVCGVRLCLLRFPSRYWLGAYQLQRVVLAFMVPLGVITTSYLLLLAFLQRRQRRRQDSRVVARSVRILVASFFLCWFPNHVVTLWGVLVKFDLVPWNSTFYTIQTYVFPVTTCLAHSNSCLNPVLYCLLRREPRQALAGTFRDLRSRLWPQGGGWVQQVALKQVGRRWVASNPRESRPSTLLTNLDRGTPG", "assay": "GTPγS binding assay, GPCR142 expressing cell membranes", "format": "biochemical", "design": "The complete coding region of human GPCR142 was PCR-amplified from human genomic DNA; expressed in transfected cells; CHO membranes (GTPγS); HEK293 co-transfected with Gα16 (Ca2+)", "method": "The GPCR142 expression vector described above was transfected into CHO cells using Lipofectamine (Invitrogen) according to the manufacturer's instructions. Two days after transfection, the cells were harvested and the cell membranes were prepared by homogenizing the cells in cold 50 mM Tris-HCl, 5 mM EDTA, pH 7.5 followed by centrifugation at 4° C. 1000 g for 10 min. The supernatant was centrifuged at 4° C. 20,000 g for 30 min and the pellet was re-suspended in GTPγS binding buffer: 50 mM Tris-HCl, pH 7.4, 10 mM MgCl2, 1 mM EDTA, pH 8.0, and 100 mM NaCl using a polytron tissue homogenizer. Protease inhibitors were added to the buffer at concentrations of 1 mM PMSF, 10 μg/ml of pepstatin A, 10 μg/ml of leupeptin. Cell membranes and different concentrations of ligands were added to 96-well plates and incubated at room temperature for 20 min. ^35S-GTPγS (NEN) was then added to each well at a final concentration of […] in a final volume of 200 μL. The reactions were allowed to proceed at room temperature for 1 h, and then the mixtures were filtered though a 96-well GFC filter plate (Packard) and washed with cold washing buffer: 50 mM Tris-HCl, pH 7.4, 10 mM MgCl2. Fifty microliters of Microscint-40 (Packard) was added to each well and the plate was counted on a top counter (TopCount NTX, Packard)."}, "[2]": {"target": "T1, GPCR142", "assay": "Inhibition of forskolin-stimulated cAMP (CRE-β-galactosidase) in SK-N-MC cells", "format": "cell-based", "design": "The complete coding region of human GPCR142 was PCR-amplified from human genomic DNA; expressed in transfected cells; HEK293 co-transfected with Gqi5 (Ca2+)", "conditions": "SK-N-MC cells stably expressing GPCR142", "method": "SK-N-MC cells stably expressing GPCR142 were established by transfection of GPCR142 expressing plasmids into SK-N-MC cells harboring a β-galactosidase gene under control of multiple cAMP responsive elements. The stable transfectants were selected by culturing the transfected cells under G418 selection (400 mg/L). The receptor expressing cells were seeded in 96-well plates at a cell density of 30,000 cells/well. After 24 h, cells were stimulated with forskolin or different peptides. Cells were cultured for an additional 6 h and the intracellular β-gal activity, which represents the intracellular cAMP accumulation, was measured as described by Liu et al. (2000), Mol. Pharmacol., 59, 420-426."}, "[3]": {"target": "T1, GPCR142", "assay": "Radioligand binding assay with 125I-relaxin3 (saturation and competition), COS-7 cell membranes", "design": "The complete coding region of human GPCR142 was PCR-amplified from human genomic DNA; expressed in transfected cells", "conditions": "competition binding, COS-7 membranes", "method": "The binding mixtures were incubated at room temperature for 1 h and then were filtered through 96-well GFC plates (Packard) and washed with ice-cold washing buffer: 50 mM Tris-HCl, pH 7.4. Fifty microliters of Microscint-40 were added to each well and the plates were counted in a Topcounter NTX (Packard). The radioligand binding results were analyzed using GraphPad PRISM software.\nThe binding assays were performed at room temperature for an incubation time of one hour. The binding mixtures were then filtered through GFC filters pre-saturated with 0.3 polyethylenimine (Sigma) and washed with cold binding buffer. The bound radioligand was counted in a top counter (TopCount/NTX, Packard) with Microscint-40. The results were analyzed by Prism 3.0 software."}, "[4]": {"target": "T1, GPCR142", "assay": "Ca2+ mobilization assay (FLIPR), HEK293 cells co-expressing GPCR142 and Gα16", "format": "cell-based", "design": "The complete coding region of human GPCR142 was PCR-amplified from human genomic DNA; expressed in transfected cells; HEK293 co-transfected with Gα16 (Ca2+)", "method": "Human embryonic kidney (HEK) 293 cells were transfected with GPCR135,.GPCR142 or co-transfected with Gqi5 (Conklin et al. (1993), Nature 363, 274-280) or Gα16 (Amatruda et al. (1991), Proc. Natl. Acad. Sci. U.S.A. 88, 5587-5591) expressing plasmids using LipofectAmine. Two days after transfection, cells were detached with PBS plus 10 mM EDTA. The detached cells were washed with DMEM-F12 medium (without phenol red, Invitrogen) and seeded in black poly-D lysine coated 96-well plates (BD Biosciences, San Jose, Calif.) at a cell density of 50,000 cell/well."}, "[5]": {"target": "T2, human GPCR142 (human, UniProt Q8TDU9 1-374)", "T2 construct": "Expressed in COS-7, CHO, SK-N-MC or HEK293 cells", "T2 sequence (Q8TDU9 whole entry L329S)": "as above", "assay": "competition binding with ^125I-relaxin3, membranes of COS-7 cells transiently expressing GPCR142", "method": "(§1) The binding mixtures were incubated at room temperature for 1 h and then were filtered through 96-well GFC plates (Packard) and washed with ice-cold washing buffer: 50 mM Tris-HCl, pH 7.4. Fifty microliters of Microscint-40 were added to each well and the plates were counted in a Topcounter NTX (Packard)."}, "[6]": {"target": "T2, human GPCR142", "assay": "cell-based or functional assay"}, "[7]": {"target": "T2, human GPCR142", "assay": "saturation radioligand binding, membranes of COS-7 cells transiently expressing GPCR142", "method": "as §1"}}, "note": "No end group written: not given here.", "data": [{"molecule": "CC[C@H](C)[C@@H]1NC(=O)[C@H](Cc2ccccc2)NC(=O)[C@H](CCC(=O)O)NC(=O)[C@H](CCCNC(=N)N)NC(=O)CNC(=O)[C@@H](NC(=O)[C@H](CC(C)C)NC(=O)[C@H](CCCNC(=N)N)NC(=O)[C@@H](NC(=O)CNC(=O)[C@H](Cc2ccc(O)cc2)NC(=O)[C@@H]2CCCN2C(=O)[C@H](C)NC(=O)[C@H](C)NC(=O)[C@@H](N)CCCNC(=N)N)C(C)C)CSSC[C@@H](C(=O)NCC(=O)NCC(=O)N[C@@H](CO)C(=O)N[C@@H](CCCNC(=N)N)C(=O)N[C@@H](Cc2c[nH]c3ccccc23)C(=O)O)NC(=O)[C@H]([C@@H](C)O)NC(=O)[C@H](Cc2ccccc2)NC(=O)[C@H]([C@@H](C)CC)NC(=O)[C@H](C(C)C)NC(=O)[C@H](C)NC(=O)[C@H](CCCNC(=N)N)NC1=O", "note": "[relaxin3 B-chain, reference compound]", "values": [{"measurement": "stimulation of 35S-GTPγS binding (agonist activity)", "setting": "[1]", "result": "stimulate"}, {"measurement": "inhibition of forskolin induced β-galactosidase expression", "setting": "[2]", "result": "showed ligand activity, albeit with a significantly lower potency"}, {"measurement": "displacement of 125I-relaxin3 binding to GPCR142", "setting": "[3]", "result": "displaced"}]}, {"molecule": "INSL5: Human INSL5 (SEQ ID NO: 5), recombinantly expressed in COS-7 cells, relaxin/insulin superfamily peptide (KESVRLCGLEYIRTVIYICASSRWQDLQTLCCTDGCSMTDLSALC; ends and bridges not checked; cysteine pairing not given here; listed as Homo sapiens)", "values": [{"measurement": "stimulation of 35S-GTPγS binding (agonist activity)", "setting": "[1]", "result": "stimulated GTPγS binding"}, {"measurement": "inhibition of forskolin induced β-galactosidase expression", "setting": "[2]", "result": "dose-dependently inhibits"}, {"measurement": "stimulation of Ca2+ mobilization", "setting": "[4]", "result": "stimulated Ca2+ mobilization"}, {"measurement": "displacement of 125I-relaxin3 binding to GPCR142", "setting": "[3]", "result": "specifically displaced"}]}, {"molecule": "RAAPYGVRLCGREFIRAVIFTCGGSRW (peptide, UniProt Q8WXF3 26-52, looked up, not fully specified (bridges); ends and bridges not checked; also: oxidized, domain: B-chain; Bought peptide; also called oxidized relaxin-3 B-chain peptide)", "note": "[relaxin3 B-chain]", "values": [{"measurement": "Ki", "setting": "[5]", "result": 85, "unit": "nM"}, {"measurement": "EC50, GTPγS binding assay", "setting": "[6]", "result": "~100", "unit": "nM"}]}, {"molecule": "^125I-relaxin3 (ligand, ends and bridges not checked; also: 125I label, residue not given here, also called radioligand; tracer) chain 1: RAAPYGVRLCGREFIRAVIFTCGGSRW chain 2: DVLAGLSSSCCKWGCSKSEISSLC", "values": [{"measurement": "Kd", "setting": "[7]", "result": 1.9, "unit": "nM"}]}]}
